PMC10397247
Blank lines part the entries; values can stand above or below the binder they belong to.

How the values were obtained:
Assay in all cases: two-hybrid library CCmax;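 also: natural log of median RNA to DNA barcode read ratio; higher means stronger binding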
P2-AA-1HGe-Q = molecular target: T1, P2-AA-1HGe-Q; details: mean of both orientations
T1 chain: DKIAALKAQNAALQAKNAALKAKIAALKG

P2-AA-1HGe-T = molecular target: T2, P2-AA-1HGe-T; details: mean of both orientations
T2 chain: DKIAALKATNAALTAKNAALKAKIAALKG

P2-AA = molecular target: T3, P2-AA; details: mean of both orientations
T3 chain: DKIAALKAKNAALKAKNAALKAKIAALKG

P2-AA-1HGe-M = molecular target: T4, P2-AA-1HGe-M; details: mean of both orientations
T4 chain: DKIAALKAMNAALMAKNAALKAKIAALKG

P2-AA-1HGe-A = molecular target: T5, P2-AA-1HGe-A; details: mean of both orientations
T5 chain: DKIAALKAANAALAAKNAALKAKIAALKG

P2-AA-1HGe-D = molecular target: T6, P2-AA-1HGe-D; details: mean of both orientations
T6 chain: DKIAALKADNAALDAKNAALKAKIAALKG

4H3605-AA = molecular target: T7, 4H3605-AA; details: mean of both orientations
T7 chain: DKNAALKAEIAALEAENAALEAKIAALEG

4H2614-AA = molecular target: T8, 4H2614-AA
T8 chain: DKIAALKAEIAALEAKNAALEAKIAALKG

4H481-AA = molecular target: T9, 4H481-AA; details: mean of both orientations
T9 chain: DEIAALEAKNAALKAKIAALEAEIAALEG

4H55-AA = molecular target: T10, 4H55-AA; details: mean of both orientations
T10 chain: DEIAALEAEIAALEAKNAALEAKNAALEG

4H3922-AA = molecular target: T11, 4H3922-AA; details: mean of both orientations
T11 chain: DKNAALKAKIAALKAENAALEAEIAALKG

4H2935-AA = molecular target: T12, 4H2935-AA; details: mean of both orientations
T12 chain: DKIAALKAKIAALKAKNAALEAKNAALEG

4H4033-AA = molecular target: T13, 4H4033-AA; details: mean of both orientations
T13 chain: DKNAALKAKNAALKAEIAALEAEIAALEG

4H3664-AA = molecular target: T14, 4H3664-AA; details: mean of both orientations
T14 chain: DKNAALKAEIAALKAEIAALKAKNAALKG

4H2726-AA = molecular target: T15, 4H2726-AA; details: mean of both orientations
T15 chain: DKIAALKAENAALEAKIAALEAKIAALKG

4H369-AA = molecular target: T16, 4H369-AA; details: mean of both orientations
T16 chain: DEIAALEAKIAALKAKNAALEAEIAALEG

4H3625-AA = molecular target: T17, 4H3625-AA; details: mean of both orientations
T17 chain: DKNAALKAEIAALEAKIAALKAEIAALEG

4H662-AA = molecular target: T18, 4H662-AA; details: mean of both orientations
T18 chain: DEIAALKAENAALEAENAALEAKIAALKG

4H327-AA = molecular target: T19, 4H327-AA; details: mean of both orientations
T19 chain: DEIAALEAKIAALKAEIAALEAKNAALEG

4H2611-AA = molecular target: T20, 4H2611-AA; details: mean of both orientations
T20 chain: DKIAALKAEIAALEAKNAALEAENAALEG

4H982-AA = molecular target: T21, 4H982-AA; details: mean of both orientations
T21 chain: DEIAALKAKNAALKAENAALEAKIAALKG

4H2553-AA = molecular target: T22, 4H2553-AA; details: mean of both orientations
T22 chain: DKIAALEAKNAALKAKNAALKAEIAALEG

4H2620-AA = molecular target: T23, 4H2620-AA; details: mean of both orientations
T23 chain: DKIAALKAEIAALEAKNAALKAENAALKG

4H2648-AA = molecular target: T24, 4H2648-AA; details: mean of both orientations
T24 chain: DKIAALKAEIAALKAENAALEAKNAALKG

4H697-AA = molecular target: T25, 4H697-AA; details: mean of both orientations
T25 chain: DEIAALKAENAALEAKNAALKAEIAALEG

4H2907-AA = molecular target: T26, 4H2907-AA; details: mean of both orientations
T26 chain: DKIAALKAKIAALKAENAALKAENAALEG

4H3588-AA = molecular target: T27, 4H3588-AA; details: mean of both orientations
T27 chain: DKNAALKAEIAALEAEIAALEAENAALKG

4H2198-AA = molecular target: T28, 4H2198-AA; details: mean of both orientations
T28 chain: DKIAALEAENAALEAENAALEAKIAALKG

4H340-AA = molecular target: T29, 4H340-AA; details: mean of both orientations
T29 chain: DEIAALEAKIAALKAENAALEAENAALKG

4H3697-AA = molecular target: T30, 4H3697-AA; details: mean of both orientations
T30 chain: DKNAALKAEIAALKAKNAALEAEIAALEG

4H32-AA = molecular target: T31, 4H32-AA; details: mean of both orientations
T31 chain: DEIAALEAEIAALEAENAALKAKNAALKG

4H3631-AA = molecular target: T32, 4H3631-AA; details: mean of both orientations
T32 chain: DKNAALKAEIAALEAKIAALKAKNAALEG

4H3718-AA = molecular target: T33, 4H3718-AA; details: mean of both orientations
T33 chain: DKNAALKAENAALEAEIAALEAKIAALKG

4H3056-AA = molecular target: T34, 4H3056-AA; details: mean of both orientations
T34 chain: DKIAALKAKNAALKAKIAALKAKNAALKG

4H3413-AA = molecular target: T35, 4H3413-AA; details: mean of both orientations
T35 chain: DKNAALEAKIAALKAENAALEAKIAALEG

4H3378-AA = molecular target: T36, 4H3378-AA; details: mean of both orientations
T36 chain: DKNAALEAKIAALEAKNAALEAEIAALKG

4H384-AA = molecular target: T37, 4H384-AA; details: mean of both orientations
T37 chain: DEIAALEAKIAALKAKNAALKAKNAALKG

4H1874-AA = molecular target: T38, 4H1874-AA
T38 chain: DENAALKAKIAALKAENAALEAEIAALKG

4H3133-AA = molecular target: T39, 4H3133-AA; details: mean of both orientations
T39 chain: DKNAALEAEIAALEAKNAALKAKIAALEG

4H3162-AA = molecular target: T40, 4H3162-AA; details: mean of both orientations
T40 chain: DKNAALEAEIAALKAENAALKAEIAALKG

4H3606-AA = molecular target: T41, 4H3606-AA; details: mean of both orientations
T41 chain: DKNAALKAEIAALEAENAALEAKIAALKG

4H3865-AA = molecular target: T42, 4H3865-AA; details: mean of both orientations
T42 chain: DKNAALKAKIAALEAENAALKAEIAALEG

Binder: DEIAALEATNAALTAENAALEAEIAALEG [P1-AA-1HGe-T]
- interaction score (P2-AA-1HGe-Q): 2.05
- interaction score (P2-AA-1HGe-T): 2
- interaction score (P2-AA): 2.07
- interaction score (P2-AA-1HGe-M): 1.53
- interaction score (P2-AA-1HGe-A): 2.18
- interaction score (P2-AA-1HGe-D): 1.17

Binder: DEIAALEADNAALDAENAALEAEIAALEG [P1-AA-1HGe-D]
- interaction score (P2-AA-1HGe-Q): 2.03
- interaction score (P2-AA-1HGe-T): 1.92
- interaction score (P2-AA): 1.91
- interaction score (P2-AA-1HGe-M): 1.74
- interaction score (P2-AA-1HGe-A): 1.58
- interaction score (P2-AA-1HGe-D): 0.303

Second part, the binder after the results:

- interaction score (4H3605-AA): -0.49
- interaction score (4H2614-AA): 1.46
- interaction score (4H481-AA): 1.06
- interaction score (4H55-AA): -0.185
- interaction score (4H3922-AA): 0.659
- interaction score (4H2935-AA): 0.084
- interaction score (4H4033-AA): -1.43
- interaction score (4H3664-AA): -1.11
- interaction score (4H2726-AA): -0.336
- interaction score (4H369-AA): 2.41
- interaction score (4H3625-AA): 0.314
- interaction score (4H662-AA): -1.17
- interaction score (4H327-AA): -0.0398
Binder: DKIAALKAEIAALEAKNAALEAKIAALKG [4H2614-AA]

- interaction score (4H2611-AA): -1.33
- interaction score (4H982-AA): -1.36
- interaction score (4H2553-AA): -1.21
- interaction score (4H2620-AA): 1.59
- interaction score (4H2648-AA): -1.44
- interaction score (4H697-AA): 1.47
- interaction score (4H2907-AA): -1.61
- interaction score (4H3588-AA): -1.22
- interaction score (4H2198-AA): -1.15
- interaction score (4H340-AA): -1.94
- interaction score (4H3697-AA): -0.269
- interaction score (4H32-AA): 1.23
- interaction score (4H3631-AA): -1.14
- interaction score (4H3718-AA): -1.5
- interaction score (4H3056-AA): -0.229
- interaction score (4H3413-AA): -1.35
- interaction score (4H3378-AA): -0.221
- interaction score (4H384-AA): -0.973
- interaction score (4H1874-AA): 1.18
- interaction score (4H3133-AA): 1.46
- interaction score (4H3162-AA): 1.38
- interaction score (4H3606-AA): 2.08
- interaction score (4H3865-AA): 1.13
Binder: DENAALKAKIAALKAENAALEAEIAALKG [4H1874-AA]
